Patent publication US20230364262A1, “VIA CYCLOADDITION BILATERALLY FUNCTIONALIZED ANTIBODIES” (SYNAFFIX B.V., priority 2020, published 2023)

Tests used:
CD3 [1] = target: CD3 (UniProt P07766); experiment: flow cytometry on Jurkat E6.1 cells, 1 nM, anti-HIS-PE
CD3 [2] = target: CD3 (UniProt P07766); experiment: flow cytometry on Jurkat E6.1 cells, 10 nM, anti-HIS-PE
CD3 [3] = target: CD3 (UniProt P07766); experiment: flow cytometry on Jurkat E6.1 cells, 100 nM, anti-HIS-PE
CD3 [4] = target: CD3 (UniProt P07766); experiment: flow cytometry on Jurkat E6.1 cells, 316 nM, anti-HIS-PE
CD3 [5] = target: CD3 (UniProt P07766); experiment: flow cytometry on Jurkat E6.1 cells, 0.32 nM, anti-HIS-PE
CD3 [6] = target: CD3 (UniProt P07766); experiment: flow cytometry on Jurkat E6.1 cells, 1000 nM, anti-HIS-PE
CD3 [7] = target: CD3 (UniProt P07766); experiment: flow cytometry on Jurkat E6.1 cells, 3.16 nM, anti-HIS-PE
CD3 [8] = target: CD3 (UniProt P07766); experiment: flow cytometry on Jurkat E6.1 cells, 31.6 nM, anti-HIS-PE
[9] = target: T1, CD3 (CD3-positive Jurkat E6.1 cells) (Homo sapiens, UniProt P07766); experiment: CD3 binding analysis by FACS on CD3-positive cells; conditions: Table 1
T1 construct: Jurkat E6.1 cells, which express CD3 on the cell surface; endogenous in cells; host or cells: Jurkat E6.1
T1 sequence (P07766 23-207): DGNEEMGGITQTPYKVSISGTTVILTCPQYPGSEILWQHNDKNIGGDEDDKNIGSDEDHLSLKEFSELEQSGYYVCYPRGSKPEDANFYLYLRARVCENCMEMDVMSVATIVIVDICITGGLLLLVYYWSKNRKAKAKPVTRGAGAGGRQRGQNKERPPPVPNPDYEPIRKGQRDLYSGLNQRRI
T1 sequence (P09693 23-182 partner): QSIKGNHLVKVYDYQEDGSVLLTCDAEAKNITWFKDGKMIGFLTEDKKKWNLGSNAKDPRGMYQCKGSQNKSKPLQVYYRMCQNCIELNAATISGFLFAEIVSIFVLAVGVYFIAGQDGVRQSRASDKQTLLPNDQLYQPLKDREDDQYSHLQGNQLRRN
T1 sequence (P04234 22-171 partner): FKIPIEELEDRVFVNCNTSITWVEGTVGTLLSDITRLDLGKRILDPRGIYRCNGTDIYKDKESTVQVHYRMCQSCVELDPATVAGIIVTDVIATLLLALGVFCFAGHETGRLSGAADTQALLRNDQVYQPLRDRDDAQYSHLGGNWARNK
T1 sequence (P20963 22-164 partner): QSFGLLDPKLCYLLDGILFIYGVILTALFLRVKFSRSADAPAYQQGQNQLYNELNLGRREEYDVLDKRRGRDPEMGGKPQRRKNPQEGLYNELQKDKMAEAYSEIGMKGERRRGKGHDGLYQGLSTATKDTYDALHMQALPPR
Method: Both cell lines were cultured in RPMI 1640 supplemented with 1% pen/strep and 10% fetal bovine serum at a concentration of 2 × 10^5 to 1 × 10^6 cells/ml. Cells were washed in fresh medium before the experiment and 100,000 cells per well were seeded in a 96-wells plate (duplicate wells). The dilution series of 6 antibodies were made in phosphate-buffered saline (PBS). The antibodies were diluted 10 times in the cell suspension and incubated at 4° C. in the dark for 30 minutes. After incubation, the cells were washed twice in cold PBS / 0.5% BSA, and incubated with anti-HIS-PE (only for 200) or anti-lgG1-PE (for all other compounds) at 4° C., in the dark for 30 minutes. After the second incubation step, the cells were washed twice. 7AAD was added as a live-dead staining. Detection of the fluorescence in the Yellow-B channel (anti-IgG1-PE and anti-HIS-PE) and the Red-B channel (7AAD) was done with the Guava 5HT flow cytometer. Median fluorescence intensity in the Yellow-B channel (anti-IgG1-PE and anti-HIS-PE) in life cells was determined with Kaluza software.

CD3, sequence (P07766 23-207): as the sequence (P07766 23-207) above

Row | Substance | median fluorescence intensity (CD3 [1]) | median fluorescence intensity (CD3 [2]) | median fluorescence intensity (CD3 [3]) | median fluorescence intensity (CD3 [4]) | median fluorescence intensity (CD3 [5]) | median fluorescence intensity (CD3 [6]) | median fluorescence intensity (CD3 [7]) | median fluorescence intensity (CD3 [8]) | concentration-dependent binding to the CD3 positive Jurkat E6.1 cell line [9]
1 | Humanized OKT3 (hOKT3) with C-terminal sortase A recognition sequence (scFv) | 66.2 | 110 | 177 | 224 | 63.6 | 417 | 83.7 | 154 | –
2 | Rituximab | – | – | – | – | – | – | – | – | not
